Like-named read-outs stand apart in the source and are kept apart here. *1 amine or outer side, *2 acyl side, *3 side chain or, on linkers, in order; H or OH if unused. Where no end group is shown, it is not given here. Side-chain parts run from the residue outwards. The star is where a group is joined. C18 diacid = O=C(O)CCCCCCCCCCCCCCCCC(=O)*; C16 diacid = O=C(O)CCCCCCCCCCCCCCC(=O)*; γGlu = O=C(O)[C@H](CCC(=O)[*:2])N[*:1]; AEEA = NCCOCCOCC(=O)O
T1: human GIP receptor (human, UniProt P48546 22-466)
T1 sequence (looked up): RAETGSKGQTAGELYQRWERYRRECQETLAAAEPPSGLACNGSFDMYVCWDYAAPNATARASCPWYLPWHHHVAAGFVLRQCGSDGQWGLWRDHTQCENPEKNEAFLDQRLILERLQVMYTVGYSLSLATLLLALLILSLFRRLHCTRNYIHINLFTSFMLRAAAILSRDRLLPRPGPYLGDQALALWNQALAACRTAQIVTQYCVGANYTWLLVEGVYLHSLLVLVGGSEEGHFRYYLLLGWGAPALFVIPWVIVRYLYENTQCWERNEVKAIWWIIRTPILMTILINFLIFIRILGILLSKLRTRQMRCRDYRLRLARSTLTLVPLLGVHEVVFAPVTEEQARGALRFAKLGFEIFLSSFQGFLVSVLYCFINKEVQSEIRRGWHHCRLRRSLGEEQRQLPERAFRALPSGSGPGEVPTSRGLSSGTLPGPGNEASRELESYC

B1: AT500 (peptide)
peptide: PGTFISDYSIAMDRIK(C16 diacid)QQDFVNWLLAQR-NH2
modifications: N-terminus assumed
SMILES: CC[C@H](C)[C@H](NC(=O)[C@H](CO)NC(=O)[C@H](Cc1ccc(O)cc1)NC(=O)[C@H](CC(=O)O)NC(=O)[C@H](CO)NC(=O)[C@@H](NC(=O)[C@H](Cc1ccccc1)NC(=O)[C@@H](NC(=O)CNC(=O)[C@@H]1CCCN1)[C@@H](C)O)[C@@H](C)CC)C(=O)N[C@@H](C)C(=O)N[C@@H](CCSC)C(=O)N[C@@H](CC(=O)O)C(=O)N[C@@H](CCCNC(=N)N)C(=O)N[C@H](C(=O)N[C@@H](CCCCNC(=O)CCCCCCCCCCCCCCC(=O)O)C(=O)N[C@@H](CCC(N)=O)C(=O)N[C@@H](CCC(N)=O)C(=O)N[C@@H](CC(=O)O)C(=O)N[C@@H](Cc1ccccc1)C(=O)N[C@H](C(=O)N[C@@H](CC(N)=O)C(=O)N[C@@H](Cc1c[nH]c2ccccc12)C(=O)N[C@@H](CC(C)C)C(=O)N[C@@H](CC(C)C)C(=O)N[C@@H](C)C(=O)N[C@@H](CCC(N)=O)C(=O)N[C@@H](CCCNC(=N)N)C(N)=O)C(C)C)[C@@H](C)CC
B2: AT384 (peptide)
peptide: SGTFISDYSIAMDRIK([AEEA-AEEA-γGlu-C18 diacid])QQDFVNWLLAQR-NH2
modifications: N-terminus assumed
SMILES: CC[C@H](C)[C@H](NC(=O)[C@H](CO)NC(=O)[C@H](Cc1ccc(O)cc1)NC(=O)[C@H](CC(=O)O)NC(=O)[C@H](CO)NC(=O)[C@@H](NC(=O)[C@H](Cc1ccccc1)NC(=O)[C@@H](NC(=O)CNC(=O)[C@@H](N)CO)[C@@H](C)O)[C@@H](C)CC)C(=O)N[C@@H](C)C(=O)N[C@@H](CCSC)C(=O)N[C@@H](CC(=O)O)C(=O)N[C@@H](CCCNC(=N)N)C(=O)N[C@H](C(=O)N[C@@H](CCCCNC(=O)COCCOCCNC(=O)COCCOCCNC(=O)CC[C@H](NC(=O)CCCCCCCCCCCCCCCCC(=O)O)C(=O)O)C(=O)N[C@@H](CCC(N)=O)C(=O)N[C@@H](CCC(N)=O)C(=O)N[C@@H](CC(=O)O)C(=O)N[C@@H](Cc1ccccc1)C(=O)N[C@H](C(=O)N[C@@H](CC(N)=O)C(=O)N[C@@H](Cc1c[nH]c2ccccc12)C(=O)N[C@@H](CC(C)C)C(=O)N[C@@H](CC(C)C)C(=O)N[C@@H](C)C(=O)N[C@@H](CCC(N)=O)C(=O)N[C@@H](CCCNC(=N)N)C(N)=O)C(C)C)[C@@H](C)CC
B3: AT504 (peptide)
peptide: SGTFISDYSIAMDRIKQQDFVNWLLAQR
HELM: PEPTIDE1{S.G.T.F.I.S.D.Y.S.I.A.M.D.R.I.K.Q.Q.D.F.V.N.W.L.L.A.Q.R.[am]}|PEPTIDE2{[O=C(O)CCCCCCCCCCCCCCC(=O)[*:2]].[gGlu]}$PEPTIDE1,PEPTIDE2,16:R3-2:R2$$$V2.0; N-terminus assumed
SMILES: CC[C@H](C)[C@H](NC(=O)[C@H](CO)NC(=O)[C@H](Cc1ccc(O)cc1)NC(=O)[C@H](CC(=O)O)NC(=O)[C@H](CO)NC(=O)[C@@H](NC(=O)[C@H](Cc1ccccc1)NC(=O)[C@@H](NC(=O)CNC(=O)[C@@H](N)CO)[C@@H](C)O)[C@@H](C)CC)C(=O)N[C@@H](C)C(=O)N[C@@H](CCSC)C(=O)N[C@@H](CC(=O)O)C(=O)N[C@@H](CCCNC(=N)N)C(=O)N[C@H](C(=O)N[C@@H](CCCCNC(=O)CC[C@H](NC(=O)CCCCCCCCCCCCCCC(=O)O)C(=O)O)C(=O)N[C@@H](CCC(N)=O)C(=O)N[C@@H](CCC(N)=O)C(=O)N[C@@H](CC(=O)O)C(=O)N[C@@H](Cc1ccccc1)C(=O)N[C@H](C(=O)N[C@@H](CC(N)=O)C(=O)N[C@@H](Cc1c[nH]c2ccccc12)C(=O)N[C@@H](CC(C)C)C(=O)N[C@@H](CC(C)C)C(=O)N[C@@H](C)C(=O)N[C@@H](CCC(N)=O)C(=O)N[C@@H](CCCNC(=N)N)C(N)=O)C(C)C)[C@@H](C)CC
B4: AT502 (peptide)
peptide: GGTFISDYSIAMDRIKQQDFVNWLLAQR
HELM: PEPTIDE1{G.G.T.F.I.S.D.Y.S.I.A.M.D.R.I.K.Q.Q.D.F.V.N.W.L.L.A.Q.R.[am]}|PEPTIDE2{[O=C(O)CCCCCCCCCCCCCCC(=O)[*:2]].[gGlu]}$PEPTIDE1,PEPTIDE2,16:R3-2:R2$$$V2.0; N-terminus assumed
SMILES: CC[C@H](C)[C@H](NC(=O)[C@H](CO)NC(=O)[C@H](Cc1ccc(O)cc1)NC(=O)[C@H](CC(=O)O)NC(=O)[C@H](CO)NC(=O)[C@@H](NC(=O)[C@H](Cc1ccccc1)NC(=O)[C@@H](NC(=O)CNC(=O)CN)[C@@H](C)O)[C@@H](C)CC)C(=O)N[C@@H](C)C(=O)N[C@@H](CCSC)C(=O)N[C@@H](CC(=O)O)C(=O)N[C@@H](CCCNC(=N)N)C(=O)N[C@H](C(=O)N[C@@H](CCCCNC(=O)CC[C@H](NC(=O)CCCCCCCCCCCCCCC(=O)O)C(=O)O)C(=O)N[C@@H](CCC(N)=O)C(=O)N[C@@H](CCC(N)=O)C(=O)N[C@@H](CC(=O)O)C(=O)N[C@@H](Cc1ccccc1)C(=O)N[C@H](C(=O)N[C@@H](CC(N)=O)C(=O)N[C@@H](Cc1c[nH]c2ccccc12)C(=O)N[C@@H](CC(C)C)C(=O)N[C@@H](CC(C)C)C(=O)N[C@@H](C)C(=O)N[C@@H](CCC(N)=O)C(=O)N[C@@H](CCCNC(=N)N)C(N)=O)C(C)C)[C@@H](C)CC
B5: AT383 (peptide)
peptide: SGTFISDYSIAMDRIK([AEEA-AEEA-AEEA-γGlu-C16 diacid])QQDFVNWLLAQR-NH2
modifications: N-terminus assumed
SMILES: CC[C@H](C)[C@H](NC(=O)[C@H](CO)NC(=O)[C@H](Cc1ccc(O)cc1)NC(=O)[C@H](CC(=O)O)NC(=O)[C@H](CO)NC(=O)[C@@H](NC(=O)[C@H](Cc1ccccc1)NC(=O)[C@@H](NC(=O)CNC(=O)[C@@H](N)CO)[C@@H](C)O)[C@@H](C)CC)C(=O)N[C@@H](C)C(=O)N[C@@H](CCSC)C(=O)N[C@@H](CC(=O)O)C(=O)N[C@@H](CCCNC(=N)N)C(=O)N[C@H](C(=O)N[C@@H](CCCCNC(=O)COCCOCCNC(=O)COCCOCCNC(=O)COCCOCCNC(=O)CC[C@H](NC(=O)CCCCCCCCCCCCCCC(=O)O)C(=O)O)C(=O)N[C@@H](CCC(N)=O)C(=O)N[C@@H](CCC(N)=O)C(=O)N[C@@H](CC(=O)O)C(=O)N[C@@H](Cc1ccccc1)C(=O)N[C@H](C(=O)N[C@@H](CC(N)=O)C(=O)N[C@@H](Cc1c[nH]c2ccccc12)C(=O)N[C@@H](CC(C)C)C(=O)N[C@@H](CC(C)C)C(=O)N[C@@H](C)C(=O)N[C@@H](CCC(N)=O)C(=O)N[C@@H](CCCNC(=N)N)C(N)=O)C(C)C)[C@@H](C)CC
B6: AT356 (peptide)
peptide: DYSIAMDKIK(C16 diacid)QQDFVNWLLAQK-NH2
modifications: N-terminus assumed
SMILES: CC[C@H](C)[C@H](NC(=O)[C@H](CO)NC(=O)[C@H](Cc1ccc(O)cc1)NC(=O)[C@@H](N)CC(=O)O)C(=O)N[C@@H](C)C(=O)N[C@@H](CCSC)C(=O)N[C@@H](CC(=O)O)C(=O)N[C@@H](CCCCN)C(=O)N[C@H](C(=O)N[C@@H](CCCCNC(=O)CCCCCCCCCCCCCCC(=O)O)C(=O)N[C@@H](CCC(N)=O)C(=O)N[C@@H](CCC(N)=O)C(=O)N[C@@H](CC(=O)O)C(=O)N[C@@H](Cc1ccccc1)C(=O)N[C@H](C(=O)N[C@@H](CC(N)=O)C(=O)N[C@@H](Cc1c[nH]c2ccccc12)C(=O)N[C@@H](CC(C)C)C(=O)N[C@@H](CC(C)C)C(=O)N[C@@H](C)C(=O)N[C@@H](CCC(N)=O)C(=O)N[C@@H](CCCCN)C(N)=O)C(C)C)[C@@H](C)CC

Columns and labels:
human GIP receptor [1] = target: T1, human GIP receptor; experiment: cell-based or functional assay
human GIP receptor [2] = target: T1, human GIP receptor; experiment: cell-based or functional assay; remark: listed apart in the source

| Binder | CisBio cAMP agonism % Efficacy (human GIP receptor [1]) | CisBio cAMP antagonism % inhib (human GIP receptor [1]) | CisBio cAMP antagonism IC50 (human GIP receptor [1]) | CisBio cAMP antagonism pIC50 (human GIP receptor [1]) | DiscoveRx cAMP antagonism % inhib (human GIP receptor [1]) | DiscoveRx cAMP antagonism IC50 (human GIP receptor [1]) | DiscoveRx cAMP antagonism log IC50 (human GIP receptor [1]) | CisBio cAMP antagonism % inhib (human GIP receptor [2]) | CisBio cAMP antagonism IC50 (human GIP receptor [2]) | cAMP antagonism % inhib (human GIP receptor [2]) | cAMP antagonism IC50 (human GIP receptor [2]) | DiscoveRx cAMP agonism Emax (human GIP receptor [1]) |
| --- | --- | --- | --- | --- | --- | --- | --- | --- | --- | --- | --- | --- |
| B1 | 4% | 77% | 66.8 nM | 7.2 | 90% | 29 nM | -7.5 log M | – | – | – | – | – |
| B2 | 0% | 97% | 54.1 nM | 7.3 | 100% | 8 nM | -8.1 log M | 97% | 54.1 nM | 100% | 8 nM | – |
| B3 | 0% | 85% | 39.8 nM | 7.4 | 90% | 21 nM | -7.7 log M | – | – | – | – | – |
| B4 | 13% | 65% | 293 nM | 6.5 | 85% | 52 nM | -7.3 log M | – | – | – | – | 5 |
| B5 | 0% | 89% | 12.6 nM | 7.9 | 100% | 1 nM | -8.9 log M | 89% | 12.6 nM | 100% | 1 nM | – |
| B6 | 0% | – | – | – | – | – | – | – | – | – | – | – |

Source: patent US20220025010A1 (ANTAG THERAPEUTICS, published 2022)
